Reference: PMC9697344

Target: human epidermal growth factor receptor expressed on M3-EGFR cells (human) (UniProt P00533)

Substance	average fluorescence of M3-EGFR cell nuclei (anti-His-Tag Alexa Fluor 647) after 2 h incubation with 300 nM MNT (Relative units (RU))
DTox-HMP-NLS-EGF modular nanotransporter	44.3
EGF-DTox-HMP-NLS-[Nrf2-peptide] modular nanotransporter	44.7
